Results published in patent US20220396822A1, “Method for Measuring Pentosidine and Measurement Kit” (Kikkoman Corporation, priority 2019, published 2022).

What was measured:
[1] = Heat stability and stable pH of PenOX2 (residual activity); settings: treated at each temperature for 10 minutes; residual activity at 37° C., pH 7.5; FIG. 9
Description: 600 μL of an arbitrary buffer, 400 μL of a solution of 3.99 U/mL peroxidase, 1.8 mM 4-aminoantipyrine, and 2 mM TOOS dissolved in deionized water, and 150 μL of deionized water were incubated at an arbitrary temperature for 10 minutes. Then, 50 μL of the enzyme liquid preserved on ice and 400 μL of a solution of 2 mM pentosidine dissolved in a 100 mM potassium phosphate buffer (pH 8.0) incubated at an arbitrary temperature for 10 minutes were added thereto, and the mixture was stirred and reacted at an arbitrary temperature for 3 minutes. Time-dependent change in A555 during the reaction was measured in a spectrophotometer (U-3900, manufactured by Hitachi High-Tech Science Corp.). Time elapsed after the start of measurement—amount of change in A555 from 20 seconds to 60 seconds was regarded as an activity value.
The enzyme liquid treated at each temperature for 10 minutes was evaluated for residual activity by performing the activity measurement described above at a temperature of 37° C. using a 100 mM (final concentration) potassium phosphate buffer (final pH at the time of activity measurement: 7.5).

[2] = Method for measuring enzymatic activity (pentosidine oxidase activity, A555), Examples 9 and 10; assay type: biochemical
Description: The amount of the enzyme that produced 1 μmol of hydrogen peroxide per minute at 37° C. was defined as 1 unit (U). The activity was calculated according to the following expression.
Each buffer was prepared as a 50 mM (final concentration) citric acid-100 mM potassium phosphate buffer (pH 4.0 to 7.5), a 100 mM (final concentration) potassium phosphate buffer (pH 6.5 to 8.0), and a 100 mM (final concentration) glycine buffer (pH 8.0 to 11.0). Enzyme reaction was performed at each pH at a temperature of 37° C. using these buffers. […] It was therefore concluded that the optimum pH of PenOX2 is pH 6.5 to 8.0 and is most preferably pH 7.5.
The activity of PenOX2 was measured at varying temperatures using a 50 mM (final concentration) potassium phosphate buffer (pH 7.5). […] It was thus concluded that the range of the optimum temperature of PenOX2 is from 37° C. to 50° C.
As mentioned above, both PenOX1 and PenOX2 had pentosidine oxidase activity. When the percent match between their amino acid sequences was examined using the BLAST program, the amino acid sequence homology therebetween was 38.2%. […] The amino acid sequence homology to PenOX1 and PenOX2 and pentosidine oxidase activity of each enzyme were as follows.

[3] = Pentosidine quantification test (DA-67/peroxidase, A658); assay type: biochemical; settings: 37° C., pH 7.0
Description: The following reagents were prepared, and pentosidine was measured using Bio Majesty JCA-BM1650 (manufactured by JEOL Ltd.).
0.2 μM, 0.4 μM, 0.6 μM, 1.0 μM, 2.0 μM or 4.0 μM pentosidine solution (prepared using the same pentosidine as in Example 2)
120 mM potassium phosphate buffer (pH 7.0)
0.2 mM DA-67 (10-(carboxymethylaminocarbonyl)-3,7-bis(dimethylamino)phenothiazine, sodium salt) (manufactured by FUJIFILM Wako Pure Chemical Corp.)
25 μL of each sample was added to 50 μL of the first reagent, and the mixture was incubated at 37° C. for 5 minutes. Then, 25 μL of the second reagent was added thereto, and pentosidine oxidation reaction mediated by PenOX2 and reaction for the detection of hydrogen peroxide produced through the reaction were allowed to proceed at 37° C. for 5 minutes.
In the reaction for the detection of hydrogen peroxide, DA-67 was oxidized, with concomitant consumption of […], into methylene blue which in turn developed color while absorbance (A658) was elevated. […] Elevation in A658 was able to be confirmed immediately after addition of the second reagent containing PenOX2.
Subsequently, the amount of elevation in A658 (ΔA) caused by the oxidation of pentosidine was calculated according to the following expression.
ΔA=(Absorbance 5 minutes after addition of the second reagent)−(Absorbance immediately before addition of the second reagent×0.75)

B1: PenOX2: protein having the amino acid sequence of SEQ ID NO: 4, pentosidine oxidase from a filamentous fungus of the genus Sarocladium (protein, listed as Sarocladium sp.)
chain: MFTPKAWIPLLALSREVFSNPTSASHSISFHGLLGVSSESVHNIHLTYGDAFPHGDFRVVFGDCGMTSEDELHHEVASLSTKMESAPDRLVWLVPKDVRENGCLHAFSEGVLLGRSEPVAFTEPLRKRESLSEIGDSDGLWFSGIRYLQSSNLTSVKAAEAKEKKIGIVGGGISGLMTSLLLTSVGMTNWHIIEATERVGGRIRTKYMNGTSPDDYQYQEMGPMRFPVEVKYNDTNETLPIQDHKMVFQLAEVLNEMNGNDTDLAVKFIPWTQNNPNTPANSRGYRLPDGRIPTAAQIAQNPSILPAAANASDPQDAELGKESLERLSDLTPERMRNISANIFKAHRDAIDRGLFHWSEAAYLRYQLGLDDDTVDFVAASDNYPMFPDWWHAVYFAATKWLTIDKGLDSLSRAFVPHVKDKITYGRKIEAMQWNESTSKISLSWRESPLAAAKSDEYDYAVVAVPFSKVRLWKRPAYSNLLTRAIGKLNYEQACKVALLYETRFWEHQEIPIFGGCGSVDIPGIGGVCYPSYEINSTRPGVILSSYITGTEARSVVALSEEDHVAMVQRAMVEVHGPMADEQWTGIYDRLCWEVDENAAGGWASPTVGQQELFIPAYHKTELNTIFIGEHTSITHGWIFSALESSVRGTTQLLLDLGLVDEAKQIVETWMARWITV
[1]
  heat stability (stable up to): around 30 °C
[2]; 50 mM potassium phosphate buffer pH 7.5, FIG. 8
  temperature at which the highest activity was exhibited: around 50 °C
[2]; 37° C., pH 7.5, Lineweaver-Burk plot, FIG. 11, read-out: Km value for pentosidine (free form)
  Km: 70 µM
[2]; 37° C., FIG. 7
  pH of highest activity: 7.5 pH
[3]
  pentosidine oxidizing activity: exhibits pentosidine oxidizing activity
